System: MS2 coat protein
Experiment: apparent KD of MS2 coat protein; designed switch direction (-1 OFF switch, 1 ON switch): 1; higher = weaker reporter binding
In short: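 On Illumina chips, designed RNA switches with common flanks were made by stalled E. coli RNA polymerase. Titrations with SNAP-549-labelled MS2 coat protein, doubling from 0.7 or 1.5 nM to 3 µM, were done with no input, with 200 uM small-molecule ligand, or with an oligonucleotide input. Apparent KD is the median per design over clusters, from curve fits of normalised cluster fluorescence.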

[1] = input ligand: microRNA oligo, concentration not stated
[2] = Eterna round: R95, input ligand: FMN 200 uM
[3] = Eterna round: R95, input ligand: microRNA oligo, concentration not stated
[4] = Eterna round: R95, input ligand: none

| Sequence | apparent KD of MS2 coat protein (input ligand: FMN 200 uM) | apparent KD of MS2 coat protein [1] | apparent KD of MS2 coat protein (input ligand: none) | apparent KD of MS2 coat protein [2] | apparent KD of MS2 coat protein [3] | apparent KD of MS2 coat protein [4] |
| --- | --- | --- | --- | --- | --- | --- |
| AUAAAACAUGAGGAUCACCCAUGUCAACAAAGUCGAGGAUAUGGGCAAAUAAAAUAAGAACCAGAAGGCGAAUAUU [salish99_ss1_r3_037] (Eterna round: R96, puzzle: Same State 1) | 43.8 nM | 262 nM | 261 nM | – | – | – |
| AUAAAACAUGAGGAUCACCCAUGUCAACAAAGUCGAGGAUAUGGGCAAAUAAAAUAAGAACCAGAAGGCGAAUAUU [salish99_ss1_r3_037] (puzzle: Same State 1) | – | – | – | 31 nM | 382 nM | 750 nM |
| AUAAAACAUGAGGAUCACCCAUGUCAACAAAGUCGAGGAUAUGGGCUAAUAAAAUAAGAACCAGAAGGCGAAUAAU [salish99_ss1_r3_027] (puzzle: Same State 1) | – | – | – | 26.2 nM | 152 nM | 146 nM |
| AUAAAACAUGAGGAUCACCCAUGUCAACAAAGUCGAGGAUAUGUGCAAAUAAAAUAAGAACCAGAAGGCGAAUAAU [salish99_ss1_r3_049] (puzzle: Same State 1) | – | – | – | 16.2 nM | 22.3 nM | 37.9 nM |
| AUAACACUGGCAGGAUAUGGGAAAGGAAGUGUACCAGAAGGGCCAGAACGGCGAUGGACAUGAGGAUCACCCAUGUCUUAGCCU [PowerStrip SSNG 1.4] (Eterna round: R96, puzzle: Same State NG 1) | 12.7 nM | 11.4 nM | 13.9 nM | – | – | – |
| AUAAGACAGGCAGGAUAUGGGCCUGACUCUGAUAUCAGAGUCUACACAUGAGGAUCACCCAUGUCCCAGAAGGGCCUGAAGAAG [Zavean] (Eterna round: R96, puzzle: Same State NG 2) | 17.6 nM | 92.2 nM | 102 nM | – | – | – |
| AUAAGGCAAGCUUUUUUCUCGUAGUAUAAACAUGAGGAUCACCCAUGUGCCUACCCUGGAUCUUUGGAUCGCAGAAA [Ravebiat] (puzzle: Sensor for hsa-mir-208a) | – | – | – | 22.1 nM | 15.7 nM | 28.3 nM |
| AUAAGUUCGAUGCUCGUCUCUCCGUACUAACAUGAGGAUCACCCAUGUGAUCGGGCAGUAGCCCGAUCAGUAUGGCC [Bizain] (puzzle: Sensor for hsa-mir-208a) | – | – | – | 90.7 nM | 68.3 nM | 114 nM |
| AUAAUAAUAAGUCAGGAUAUGUUGAUAAAGACAUGAGGAUCACCCAUGUGAAAUAAAAUAAUAAUACAGAAGGGACAAUAAUAAA [JMF's solution 3] (puzzle: Same State 2) | – | – | – | 252 nM | 64 nM | 265 nM |
| AUAAUUAAUGCAGGAUAUGAUUAACAUGAGGAUCACCCAUGUGGUGUUGUGAGUAAGGAGAGUGAUCAGAAGGGCAUUUUUUUU [JMF's solution 33] (Eterna round: R96, puzzle: Same State NG 2) | 666 nM | 298 nM | 343 nM | – | – | – |
| AUAAUUUAUGCAGGAUAUGAUUAACAUGAGGAUCACCCAUGUGGUGUUGUGAGUAAGGAGAGUGAUCAGAAGGGCAUUUUUUUU [JMF's solution 70] (Eterna round: R96, puzzle: Same State NG 2) | 734 nM | 391 nM | 400 nM | – | – | – |
| AUAUAACAUGAGGAUCACCCAUGUCUCUAAAGUCGAGGAUAUGGGCAAAUAAUAUAAGAACCAGAAGGCGAAUUAU [SS1 Teenbexe 4] (puzzle: Same State 1) | – | – | – | 143 nM | 34.1 nM | 79.3 nM |
| AUAUACUGGGUAGGAUAUCUAGGAUAUGGGAAAGACUAAGUCUGUAGGUCACCUAACCCAGAUGGAGAGAAGGACCCAACACAC [pwkr ssNG2 2FMN + F9.42] (Eterna round: R96, puzzle: Same State NG 2) | 16.1 nM | 5.2 nM | 42.6 nM | – | – | – |
| AUCAAAACAAGUUGCAGUGUUCGUCUUUCACAUGAGGAUCACCCAUGUAAUAGCCCAGCGGAAGCACUCGGGCCACC [Arzasola] (puzzle: Sensor for hsa-mir-208a) | – | – | – | 26.8 nM | 28.1 nM | 31.2 nM |
| AUCAAAGCGUGAGGAUAUAUGGGAACACGAGUCGUAGAAGGUACGUCAAUACAUGAGGAUCACCCAUGUAAAGAGGAGAACCUC [Eternabot solution 33] (Eterna round: R96, puzzle: Same State NG 1) | 60.1 nM | 32.9 nM | 45.2 nM | – | – | – |
| AUCAAUCUAUCUGAGGAUAUCAUGAAAUAAACAUGAGGAUCACCCAUGUGCAGGAAAACUGCAUAUGAGAAGGCAGAUAGAUUGA [salish99_ss2_r3_019] (puzzle: Same State 2) | – | – | – | 63.9 nM | 323 nM | 879 nM |
| AUCCCAUCGGGAGGAUAUGGAACCUUAUUGGUUCCAGAAGGUCCAACAUGAGGAUCACCCAUGUGGGAGUGGUCUAAUGACCAC [Fiskers NG1ss - 29] (Eterna round: R96, puzzle: Same State NG 1) | 222 nM | 272 nM | 470 nM | – | – | – |
| AUCCCAUCGGGAGGAUAUGGAACCUUAUUGGUUCUAGAAGGUCCAACAUGAGGAUCACCCAUGUGGGAGUGGUCUAAUGACCAC [SS NG10LRO01] (Eterna round: R96, puzzle: Same State NG 1) | 190 nM | 208 nM | 414 nM | – | – | – |
| AUGCAGCUACCACAGGAUAUACGUGGAUCGACAUGAGGAUCACCCAUGUAUAUCCUAAUAAUUGCGUAGAAGGGUGGUCAGCUGC [Tezaqutete] (puzzle: Same State 2) | – | – | – | – | 696 nM | – |
| AUUAAACAUGAGGAUCACCCAUGUCAACAAAGUCGAGGAUAUGGGCAUAUUAUCUUAUAACCAGAAGGCGAAUAAU [salish99_ss1_r3_086] (puzzle: Same State 1) | – | – | – | – | 155 nM | – |
| AUUAAUAAUCUAGGAUAUCACGUCGAAUAGACGUGAGAAGGAGAUCAUAACAUGAGGAUCACCCAUGUAUUACAUGAAGUUAAU [SSNG1/7-B1] (Eterna round: R96, puzzle: Same State NG 1) | 27.5 nM | 29.9 nM | 34.8 nM | – | – | – |
| AUUACUAACAUAGGAUAUCAUGCGAAAAUUGCGUGAGAAGGGUGGACGCUGUCAUUCACGGAAGACAUGAGGAUCACCCAUGUC [SameState NG1 #73] (Eterna round: R96, puzzle: Same State NG 1) | 170 nM | 70.5 nM | 119 nM | – | – | – |
| AUUAUACAUGAGGAUCACCCAUGUAAUUAAUUAAUUAAGAUCUAGGAUAUCAGCUCGAUUAGAGCUGAGAAGGAGAUCACAUGU [SSNG3/20-C2] (Eterna round: R96, puzzle: Same State NG 3) | – | 21.2 nM | – | – | – | – |
| AUUAUUUAUGCAGGAUAUGAUUAACAUGAGGAUCACCCAUGUGGUGUUGUGAGUAAGGAGAGUGAUCAGAAGGGCAUUUUUUUC [JMF's solution 59] (Eterna round: R96, puzzle: Same State NG 2) | 381 nM | 214 nM | 397 nM | – | – | – |
| AUUAUUUCAUGAGGAUAUGGCACCUUAUUGGUGCCAGAAGGCAUGUCUAUUGACAUGAGGAUCACCCAUGUAUUAUAUUAUAUA [Eli NG1ss - 88] (Eterna round: R96, puzzle: Same State NG 1) | 57.4 nM | 658 nM | 493 nM | – | – | – |
| AUUCGUUUGAUAGGAUAUCACCUUACAUGAGGAUCACCCAUGUUCACCACGCUGGUUUUUCAUACUGAGAAGGAUCUUGAUGAC [JR_SSNG2_Sub007] (Eterna round: R96, puzzle: Same State NG 2) | 50.5 nM | 45.6 nM | 51.4 nM | – | – | – |
| AUUGCUAGCACAGGAUAUCAUGCGAAAAUUGCGUGAGAAGGGUGGACGCUGUCAUUCACGGAGGACAUGAGGAUCACCCAUGUC [SameState NG1 #78] (Eterna round: R96, puzzle: Same State NG 1) | 54.4 nM | 53.4 nM | 62.6 nM | – | – | – |
| AUUGCUAUCACAGGAUAUCAUGCGGAAAUCGCGUGAGAAGGGUGGACUCUGUCAUUCACGGAGGACAUGAGGAUCACCCAUGUC [SS NG10LRO17] (Eterna round: R96, puzzle: Same State NG 1) | 612 nM | 18.4 nM | 36.3 nM | – | – | – |

— the supplement of paper PMC9170038
